The target in one series is T1, Dcp1/Dcp2core (Schizosaccharomyces pombe, UniProt Q9P805;O13828 1-127;1-243).
T1 sequence 1: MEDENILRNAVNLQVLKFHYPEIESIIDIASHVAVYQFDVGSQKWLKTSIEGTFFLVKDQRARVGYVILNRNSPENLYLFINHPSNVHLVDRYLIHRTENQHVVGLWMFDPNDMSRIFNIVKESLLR
T1 sequence 2: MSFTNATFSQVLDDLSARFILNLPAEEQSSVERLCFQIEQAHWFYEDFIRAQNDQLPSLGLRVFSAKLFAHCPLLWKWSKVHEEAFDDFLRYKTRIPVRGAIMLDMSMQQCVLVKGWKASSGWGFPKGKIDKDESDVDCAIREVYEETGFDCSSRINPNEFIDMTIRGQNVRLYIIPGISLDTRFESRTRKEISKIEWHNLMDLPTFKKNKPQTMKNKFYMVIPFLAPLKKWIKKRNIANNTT
Description: fluorescence polarization. (In fluorescence polarisation assays a small probe gives low polarisation when free and higher when bound to something large.)

The next series addresses T2, Dcp1(1-127) (S. pombe, UniProt Q9P805 1-127, perdeuterated background, 1H/13C-labelled ILVMA terminal methyl groups).
T2 sequence (looked up): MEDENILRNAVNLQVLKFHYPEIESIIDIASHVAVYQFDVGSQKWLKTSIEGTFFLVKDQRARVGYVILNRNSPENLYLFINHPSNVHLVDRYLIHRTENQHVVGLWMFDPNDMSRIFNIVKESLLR
Description: co-purification.

Turning to UUUUUUUUUUUUUUUUUUUUUUUUUUUUUU (ssRNA, 5' phosphate) [30U RNA], the binding result with Dcp1/Dcp2core is “binds”.

B1: Dcp2(1-504)_(eSrtA), sortase-ligated Dcp2ext with C-terminal StrepII (domain or fragment, S. pombe)
chain: MSFTNATFSQVLDDLSARFILNLPAEEQSSVERLCFQIEQAHWFYEDFIRAQNDQLPSLGLRVFSAKLFAHCPLLWKWSKVHEEAFDDFLRYKTRIPVRGAIMLDMSMQQCVLVKGWKASSGWGFPKGKIDKDESDVDCAIREVYEETGFDCSSRINPNEFIDMTIRGQNVRLYIIPGISLDTRFESRTRKEISKIEWHNLMDLPTFKKNKPQTMKNKFYMVIPFLAPLKKWIKKRNIANNTTKEKNISVDVDADASSQLLSLLKSLPETGGGATPQPSTFPQPPVESHSSFDIKQKILHLLNEGNEPKSPIQLPPVSNLPLNPPIQSSNSRLSHDNNSFDPFAYLGLDPKNPSASFPRVVSQNNMLTNKPVLNNHFQQSMYSNLLKDQNSVQHLFAASDMPSPMELPSPSTVYHQVFYPPTSTSVSSYGLGKTPQPAYGSSSPYVNGHQTQQISSLPPFQSQTQFLARNSDNSGQSYNSEGDSNSKRLLSMLSQQDTTPSSST
modifications: residues 1-266 perdeuterated with 1H/13C-labelled ILVMA terminal methyl groups; 274-504 unlabelled
In the case of B1, the binding result with Dcp1(1-127) is “binds”.

Values taken from doi:10.1101/2020.07.09.195057 (bioRxiv, 2020).
